Assay [1] deals with T1, Human complement protein C5 (human, UniProt P01031 19-673; P01031 678-1676). Briefly: cell-based or functional assay.
In assay [2] the target is T1, Human complement protein C5.

Here are results for 1 molecule from US20190167760A1 (SWEDISH ORPHAN BIOVITRUM AB PUBL, published 2019).

What is called IC50 is the point on the concentration scale where inhibition reaches its midpoint. A higher IC50 goes with weaker potency.

T1 sequence (P01031 19-673, chain 1 of 2): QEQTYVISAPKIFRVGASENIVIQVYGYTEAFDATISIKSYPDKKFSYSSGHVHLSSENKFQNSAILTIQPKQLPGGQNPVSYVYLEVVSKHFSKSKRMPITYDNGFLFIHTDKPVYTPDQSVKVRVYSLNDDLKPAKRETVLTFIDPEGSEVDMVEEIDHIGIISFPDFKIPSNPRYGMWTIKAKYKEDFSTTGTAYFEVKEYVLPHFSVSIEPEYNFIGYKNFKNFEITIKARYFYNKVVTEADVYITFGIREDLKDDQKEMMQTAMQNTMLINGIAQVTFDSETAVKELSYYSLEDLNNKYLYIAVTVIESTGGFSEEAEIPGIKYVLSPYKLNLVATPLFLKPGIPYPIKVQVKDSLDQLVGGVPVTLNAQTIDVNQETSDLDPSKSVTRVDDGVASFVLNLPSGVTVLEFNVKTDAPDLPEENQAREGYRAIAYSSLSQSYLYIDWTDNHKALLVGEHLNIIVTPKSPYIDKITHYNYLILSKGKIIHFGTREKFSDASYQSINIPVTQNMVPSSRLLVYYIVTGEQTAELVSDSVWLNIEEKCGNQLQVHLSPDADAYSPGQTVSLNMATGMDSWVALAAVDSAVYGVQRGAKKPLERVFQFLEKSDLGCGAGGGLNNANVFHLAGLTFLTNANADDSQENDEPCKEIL
T1 sequence (P01031 678-1676, chain 2 of 2): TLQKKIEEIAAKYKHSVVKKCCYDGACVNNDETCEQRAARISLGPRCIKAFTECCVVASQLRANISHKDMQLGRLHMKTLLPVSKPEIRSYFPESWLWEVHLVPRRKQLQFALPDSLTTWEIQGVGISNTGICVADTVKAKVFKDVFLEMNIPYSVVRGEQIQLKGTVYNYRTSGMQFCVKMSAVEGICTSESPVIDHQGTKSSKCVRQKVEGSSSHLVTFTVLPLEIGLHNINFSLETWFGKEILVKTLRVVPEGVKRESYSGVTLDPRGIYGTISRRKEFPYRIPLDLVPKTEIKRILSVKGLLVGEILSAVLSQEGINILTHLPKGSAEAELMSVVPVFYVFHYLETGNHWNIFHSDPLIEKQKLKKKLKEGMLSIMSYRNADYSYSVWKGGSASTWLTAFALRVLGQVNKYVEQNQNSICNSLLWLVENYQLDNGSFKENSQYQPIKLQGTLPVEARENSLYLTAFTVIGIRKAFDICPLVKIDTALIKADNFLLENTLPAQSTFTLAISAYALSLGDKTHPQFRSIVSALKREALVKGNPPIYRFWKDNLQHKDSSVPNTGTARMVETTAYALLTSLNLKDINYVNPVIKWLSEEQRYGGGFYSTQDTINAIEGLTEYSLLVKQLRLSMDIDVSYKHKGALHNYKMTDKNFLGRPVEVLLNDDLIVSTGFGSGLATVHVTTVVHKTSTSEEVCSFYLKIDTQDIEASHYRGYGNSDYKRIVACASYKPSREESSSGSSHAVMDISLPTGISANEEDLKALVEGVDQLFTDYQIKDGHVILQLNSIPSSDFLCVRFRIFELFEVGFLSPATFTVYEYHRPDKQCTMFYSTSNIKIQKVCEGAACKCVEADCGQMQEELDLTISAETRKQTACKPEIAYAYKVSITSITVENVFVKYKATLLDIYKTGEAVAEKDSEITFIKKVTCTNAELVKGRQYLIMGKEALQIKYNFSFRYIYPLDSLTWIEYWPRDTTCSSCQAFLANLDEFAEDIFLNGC

B1: Ornithodoros moubata Complement Inhibitor with a His6 tag in the C-terminus (other)
chain: MDSESDCTGSEPVDAFQAFSEGKEAYVLVRSTDPKARDCLKGEPAGEKQDNTLPVMMTFKNGTDWASTDWTFTLDGAKVTATLGNLTQNREVVYDSQSHHCHVDKVEKEVPDYEMWMLDAGGLEVEVECCRQKLEELASGRNQMYPHLKDCGGGGSENLYFQGSHHHHHH
With B1, the “IC50 of inhibition of hemolysis of antibody sensitized sheep erythrocytes” value in assay [1] lay within 0.3 to 0.5 nM. This molecule came in with an IC50 in assay [2] of 1.5 nM.
